Source: patent publication US11994512B2, “Single-cell genomic methods to generate ex vivo cell systems that recapitulate in vivo biology with improved fidelity” (Massachusetts Institute of Technology, priority 2018, dated 2024)

Test system: intracellular proteome of ENR+CD and ENR organoids
Assay: LC-MS/MS TMT proteomics of ENR+CD versus ENR organoids
Format: cell-based, C57BL/6 mice
Details: for Average logFC: ENR+CD versus ENR organoids, sample pairs in aggregate (n=4, 2 technical replicates from two biological donors); for M1-1 Log2 Median Normalized / M1-2 Log2 Median Normalized / M2-1 Log2 Median Normalized / M2-2 Log2 Median Normalized: protein abundance ratio ENR+CD versus ENR organoids, LC-MS/MS TMT proteomics; for M1-1 Log2 Median Normalized: sample pair M1-1; for M1-2 Log2 Median Normalized: sample pair M1-2; for M2-1 Log2 Median Normalized: sample pair M2-1; for M2-2 Log2 Median Normalized: sample pair M2-2; for change: up = enriched in ENR+CD, down = enriched in ENR, FDR<0.05 and log fold change cut-off

B1: Q60604 (protein, UniProt Q60604 1-715, looked up)
chain: MAQELQHPEFARAGQQAGLQVWRVEKLELVPVPQGAYGDFYVGDAYLVLHTTKSSRGFSYRLHFWLGKECSQDESTAAAIFTVQMDDYLGGKPVQSRELQGYESTDFVGYFKGGLKYKAGGVASGLNHVLTNDLTAKRLLHVKGRRVVRATEVPLSWESFNKGDCFIIDLGTEIYQWCGSSCNKYERLKASQVAIGIRDNERKGRSQLIVVEEGSEPSELMKVLGRKPELPDGDNDDDVVADISNRKMAKLYMVSDASGSMKVTLVAEENPFSMGMLLSEECFILDHGAAKQIFVWKGKNANPQERKTAMKTAEEFLQKMKYSTNTQIQVLPEGGETPIFKQFFKDWKDKDQSDGFGKVYITEKVAQIKQIPFDASKLHSSPQMAAQHNMVDDGSGGVEIWRVENSGRVQIDPSSYGEFYGGDCYIILYTYPRGQIIYTWQGANATRDELTMSAFLTVQLDRSLGGQAVQVRVSQGKEPAHLLSLFKDKPLIIYKNGTSKKEGQAPAPPTRLFQVRRNLASITRIVEVDVDANSLNSNDTFVLKLPRNNGFIWIGKGASQEEEKGAEYVADVLKCKASRIQEGKEPEEFWNSLGGRGDYQTSPLLETRAEDHPPRLYGCSNKTGRFIIEEVPGEFTQDDLAEDDVMLLDAWEQIFIWIGKDANEVEKKESVKSAKMYLETDPSGRDKRTPIVIIKQGHEPPTFTGWFLGWDSSRW
modifications: full-length
  Average logFC: −1.3
  M1-1 Log2 Median Normalized: −1.236
  M1-2 Log2 Median Normalized: −2.062
  M2-1 Log2 Median Normalized: −1.8295
  M2-2 Log2 Median Normalized: −0.073
  change: down

B2: Q571E4 (protein, UniProt Q571E4 1-520, looked up)
chain: MAACTAAQQLLLVLSALGLLAAGAPQPPNIVLLLMDDMGWGDLGVNGEPSRETPNLDRMAAEGMLFPSFYSANPLCSPSRAALLTGRLPIRNGFYTTNAHARNAYTPQEIMGGIPNSEHLLPELLKKAGYTNKIVGKWHLGHRPQFHPLKHGFDEWFGSPNCHFGPYDNKAKPNIPVYRDWEMVGRFYEEFPINRKTGEANLTQLYTQEALDFIQTQHARQSPFFLYWAIDATHAPVYASRQFLGTSLRGRYGDAVREIDDSVGKILSLLQNLGISKNTFVFFTSDNGAALISAPNEGGSNGPFLCGKQTTFEGGMREPAIAWWPGHIAAGQVSHQLGSIMDLFTTSLSLAGLKPPSDRVIDGLDLLPTMLKGQMMDRPIFYYRGNTLMAVTLGQYKAHLWTWTNSWEEFTQGTDFCPGQNVSGVTTHTQEEHTELPLIFHLGRDPGERFPLSFHSDEYQDALSRTTQVVQEHQKSLVPGQPQLNVCNQAVMNWAPPGCEKLGKCLTPPESVPEKCFWAH
modifications: full-length
  Average logFC: 1.207
  M1-1 Log2 Median Normalized: 1.473
  M1-2 Log2 Median Normalized: 0.565
  M2-1 Log2 Median Normalized: 1.3465
  M2-2 Log2 Median Normalized: 1.206
  change: up

B3: Q5HZI2 (protein, UniProt Q5HZI2 1-419, looked up)
chain: MRKTNMWFLERLRGSGENGASRGEAGDKSSKGPLYSNVLTPDKIPDFFIPPKLPSGPTEAEGQADLGPSTSEQNLASPGPRRAPRSPRLPAKLASESRSLLKAATRHVIQIESAEDWTAEEATNADPQAQGAMSLPSVPKAQTSYGFATLAESPHTRRKESLFHSEHGALAQVGSPGAGRRRAGAKGNGGDGGSREVGGALMSPSRYFSGGESDTGSSAESSPFGSPLLSRSVSLLKGFAQDSQAKVSQLKQSVGRHGSLSADDSTPDTSPGVRRRLSRRATPEPGPESGQAPRGEHTVKMGTRGSVRLLAEYEAAQARLRVRLLAAEGLYDRPCDARSINCCVGLCLVPGKLQKQRSTIIKNSRHPIFNEDFFFDGLGPASVRKLALRIKVVNKGSSLKRDTLLGEEELPLTSLLPFL
modifications: full-length
  Average logFC: 1.158
  M1-1 Log2 Median Normalized: 0.822
  M1-2 Log2 Median Normalized: 0.518
  M2-1 Log2 Median Normalized: 1.5305
  M2-2 Log2 Median Normalized: 1.762
  change: up

B4: Q4VAH7 (protein, UniProt Q4VAH7 1-463, looked up)
chain: MGQDAFMELLRSMVGLSLCKIHLLLIAGSCLGLKVTVPSYTVHGIRGQALYLPVHYGFHTPASDIQIIWLFERSHTMPKYLLGSVNKSVVPDLEYQHKFTMMPPNASLLINPLQFTDEGNYIVKVNIQGNGTLSASQKIQVTVDDPVMKPMVQFHPASGAVEYVGNITLTCQVEGGTRLVYQWRKSGKPISINSSHSFSPQNNTLWIVPVTKEDIGNYTCLVSNPVSEMESDIIMPTIYYGPYGLQVNSDKGLKVGEVFTVDLGEAVLFDCSADSYPPNTYSWIQRSDNTTHVIKHGPHLEVASEKVAQKTADYVCCAYNNITGRRDETRFTVIITSVGLEKLAQRGKSLSPLASITGISLFLIISMCLLFLWKKYQPYKAIRQKLEGRPESEYRKAQTFSGHEDALSDFGIYEFVTFPDASGVSRMSSRSSPASDGVTGQDIHGTIYEVIQHIPEQQQENTE
modifications: full-length
  Average logFC: 1.418
  M1-1 Log2 Median Normalized: 1.047
  M1-2 Log2 Median Normalized: 1.639
  M2-1 Log2 Median Normalized: 1.2475
  M2-2 Log2 Median Normalized: 1.739
  change: up

B5: Q5DQR4 (protein, UniProt Q5DQR4 1-1185, looked up)
chain: MKKFNFRKVLDGLTASSPGSGSSSGSNSGGAGSGSVHPGGTAGLPREEIQESLTSDYFQICKTVRHGFPYQPTALAFDPVQKILAIGTRTGAIRILGRPGVDCYCQHESGAAVLQLQFLINEGALVSASSDDTLHLWNLRQKRPAILHSLKFNRERITYCHLPFQSKWLYVGTERGNTHIVNIESFILSGYVIMWNKAIELSTKTHPGPVVHLSDSPRDEGKLLIGYENGTVVFWDLKSKRAELRVYYDEAIHSIDWHHEGKQFMCSHSDGSLTLWNLKSPSRPFQTTVPHGKSQREGRKSESCKPILKVEYKTCRNSEPFIIFSGGLSYDKACRRPSLTIMHGKAITVLEMDHPIVEFLTLCETPYPNEFQEPYAVAVLLEKDLIVVDLTQTNFPIFENPYPMDIHESPVTCTAYFADCPPDLILVLYSIGVKHKKQGYSNKEWPVSGGAWNLGAQTYPEIIITGHADGTIKFWDASAMTLQMLYKLKTSKVFEKQKAGEGKQTCELVEEDPFAVQMIYWCPESRIFCVSGVSAYVIIYKFSRHEVTTEIVSLEVRLQCDVEDIITPEPETSPPFPDLSSQLPPSRSLSGSTNTVSSEGVTKDSIPCLSVKTRPVRMPPGYQADLVIQLVWVDGEPPQQITSLSISSAYGIVAFGNCTGLVVVDFIQKTVLLSMGTIDLYRSSDLYQRQPRSPRKNRQFIADNFCMRGLSNFYPDLTKRIRTSYQSLTELNDSPVPLELERCKSPTSDHVNGHCTSPTSQSCSSGKRLSSADVSKVNRWGPGRPPFRKAQSAACMEISLPVTTEETRENSYNRSRSSSISSIDKDSKEAITALYFMESFARKNDSTVSPCLFVGTSLGMVVLISLNLPSSDEQRFTEPVVVLPSGTFLSLKGAVLTFSCMDRTGSLMQPPYEVWRDPNNTDENEKTWKRKLVMNYSSSSQEMGDHQYTIICSEKQAKVFSLPSQTCLYVHNITETSFILQADVVVMCNSACLACFCANGHIMIMSLPSLRPMLDVNYLPLTDMRIARTFCFTNEGQALYLVSPTEIQRLTYSQEMCDNIQDMLGDLFTPIETPEAQNRGFLKGLFGGSGQTFDREELFGEASAGKASRSLAQHIPGPGSIEGMKGAAGGVMGELTRARIALDERGQRLGELEEKTAGMMTSAEAFSKHAHELMLKYKDKKWYQF
modifications: full-length
  Average logFC: 1.147
  M1-1 Log2 Median Normalized: 1.316
  M1-2 Log2 Median Normalized: 0.966
  M2-1 Log2 Median Normalized: 1.1715
  M2-2 Log2 Median Normalized: 1.133
  change: up

B6: Q52KI8 (protein, UniProt Q52KI8 1-946, looked up)
chain: MDAGFFRGTSAEQDNRFSNKQKKLLKQLKFAECLEKKVDMSKVNLEVIKPWITKRVTEILGFEDDVVIEFIFNQLEVKNPDSKMMQINLTGFLNGKNAREFMGELWPLLLSAQENIAGIPSAFLELKKEEIKQRQIEQEKLASLKKQDEDKDKRDKEEKESSREKRERSRSPRRRKSRSPSPRRRSSPVRRERKRSHSRSPRHRTKSRSPSPAPEKKEKSPELPEPSVRMKDSSVQEATSTSDILKAPKPEPVPEPKEPSPEKNSKKEKEKTRPRSRSRSKSRSRTRSRSPSHTRPRRRHRSRSRSYSPRRRPSPRRRPSPRRRTPPRRMPPPPRHRRSRSPGRRRRRSSASLSGSSSSSSSSRSRSPPKKPPKRTSSPPRKTRRLSPSASPPRRRHRPSSPATPPPKTRHSPTPQQSNRTRKSRVSVSPGRTSGKVTKHKGTEKRESPSPAPKPRKVELSESEEDKGSKMAAADSVQQRRQYRRQNQQSSSDSGSSSTSEDERPKRSHVKNGEVGRRRRHSPSRSASPSPRKRQKETSPRMQMGKRWQSPVTKSSRRRRSPSPPPARRRRSPSPAPPPPPPPPPPRRRRSPTPPPRRRTPSPPPRRRSPSPRRYSPPIQRRYSPSPPPKRRTASPPPPPKRRASPSPPPKRRVSHSPPPKQRSPTVTKRRSPSLSSKHRKGSSPGRSTREARSPQPNKRHSPSPRPRAPQTSSPPPVRRGASASPQGRQSPSPSTRPIRRVSRTPEPKKIKKTAMATQRNIRRVSKSPKADSLSRAASPSPQSVRRVSSSRSVSGSPEPAAKKPPAPPSPVQSQSPSTNWSPAVPAKKAKSPTPSLSPARNSDQEGGGKKKKKKKDKKHKKDKKHKKHKKHKKEKAVTIATPATAAPAAVSAATTTSAQEEPAAAPEPRKETESEAEDDNLDDLERHLREKALRSMRKAQVSPQS
modifications: full-length
  Average logFC: −1.144
  M1-1 Log2 Median Normalized: −1.036
  M1-2 Log2 Median Normalized: −0.819
  M2-1 Log2 Median Normalized: −1.2825
  M2-2 Log2 Median Normalized: −1.437
  change: down
